Measurements from the supplement of paper PMC7125110.
± gives the standard error. Fewer inactive variants are shown than the library holds.

B1: glmS ribozyme (parent)
chain: AUAAAAGCGCCAGAACUACAGAAAUGUAGUUGACGAGGAGGAGGUUUAUCGAAUUUUCGGCGGAUGCCUCCAAA

How the values were obtained:
Conditions in all cases: with glucosamine-6-phosphate
glucosamine-6-phosphate [1] = variants of: B1; experiment: self-cleavage kobs at 40 uM GlcN6P; higher = faster cleavage; RNA array
Method in brief: (§1)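 Tiles bearing barcoded ribozyme variants, transcribed in situ by E. coli RNA polymerase on sequenced MiSeq chips, were imaged over ~14 h at 37 °C using a hybridised Cy3 probe. Glucosamine-6-phosphate was supplied at 40 μM to 10 mM in HEPES/KCl/Mg(OAc)2 buffer. kobs came from one- or two-exponential decay fits to normalised per-tile medians, and weighted Michaelis–Menten fits then provided kcat and KM.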

glucosamine-6-phosphate [2] = variants of: B1; experiment: self-cleavage kobs at 640 uM GlcN6P; higher = faster cleavage; RNA array
Method in brief: as §1

glucosamine-6-phosphate [3] = variants of: B1; experiment: self-cleavage kobs at 10000 uM GlcN6P; higher = faster cleavage; RNA array
Method in brief: as §1

glucosamine-6-phosphate [4] = variants of: B1; experiment: self-cleavage kobs at 160 uM GlcN6P; higher = faster cleavage; RNA array
Method in brief: as §1

glucosamine-6-phosphate [5] = variants of: B1; experiment: self-cleavage kobs at 2500 uM GlcN6P; higher = faster cleavage; RNA array
Method in brief: as §1

Row | Variant | self-cleavage kobs at 40 uM GlcN6P (glucosamine-6-phosphate [1]) | self-cleavage kobs at 640 uM GlcN6P (glucosamine-6-phosphate [2]) | self-cleavage kobs at 10000 uM GlcN6P (glucosamine-6-phosphate [3]) | self-cleavage kobs at 160 uM GlcN6P (glucosamine-6-phosphate [4]) | self-cleavage kobs at 2500 uM GlcN6P (glucosamine-6-phosphate [5])
1 | G7C U54A | < 1e-05 s⁻¹ | < 1e-05 s⁻¹ | < 1e-05 s⁻¹ | – | –
2 | C8U G38U A39C C58A | < 1e-05 s⁻¹ | – | – | – | –
3 | G7U A12G | < 1e-05 s⁻¹ | < 1e-05 s⁻¹ | < 1e-05 s⁻¹ | < 1e-05 s⁻¹ | –
4 | G13A C16G A64U | < 1e-05 s⁻¹ | – | – | – | –
5 | A28U | 0.000787 ± 0.00025 s⁻¹ | – | 0.0176 ± 0.0065 s⁻¹ | – | 0.0144 ± 0.0048 s⁻¹
6 | G38C U55A G63U | < 1e-05 s⁻¹ | < 1e-05 s⁻¹ | – | – | < 1e-05 s⁻¹
7 | A6G G35U A52C C70G | < 1e-05 s⁻¹ | – | – | – | –
8 | G35C C50U G51C | < 1e-05 s⁻¹ | < 1e-05 s⁻¹ | < 1e-05 s⁻¹ | < 1e-05 s⁻¹ | < 1e-05 s⁻¹
9 | G13U G59U | < 1e-05 s⁻¹ | < 1e-05 s⁻¹ | < 1e-05 s⁻¹ | < 1e-05 s⁻¹ | –
10 | C50A G63C | < 1e-05 s⁻¹ | – | < 1e-05 s⁻¹ | < 1e-05 s⁻¹ | –
11 | G13C G63A | < 1e-05 s⁻¹ | < 1e-05 s⁻¹ | – | – | < 1e-05 s⁻¹
12 | C8A A12U A39G | < 1e-05 s⁻¹ | < 1e-05 s⁻¹ | < 1e-05 s⁻¹ | – | –
13 | C34G G41C G66U | < 1e-05 s⁻¹ | – | < 1e-05 s⁻¹ | – | –
14 | C8U C11G C50U U56C U69G | 4.97e-05 ± 2.2e-05 s⁻¹ | – | – | – | –
15 | A14G G32A U49A | < 1e-05 s⁻¹ | – | – | – | –
16 | A15G A52G C58G | < 1e-05 s⁻¹ | – | 8.04e-05 ± 2.1e-05 s⁻¹ | – | –
17 | G29A U49A | < 1e-05 s⁻¹ | < 1e-05 s⁻¹ | – | < 1e-05 s⁻¹ | –
18 | C16G U57C | < 1e-05 s⁻¹ | – | 3.37e-05 ± 1.2e-05 s⁻¹ | < 1e-05 s⁻¹ | –
19 | G13A A42G A48U | < 1e-05 s⁻¹ | – | < 1e-05 s⁻¹ | – | –
20 | A53G U54A | 0.000851 ± 0.00024 s⁻¹ | 0.0083 ± 0.0014 s⁻¹ | 0.0724 ± 0.027 s⁻¹ | 0.00267 ± 0.00057 s⁻¹ | 0.0106 ± 0.0043 s⁻¹
21 | G29C U65C | < 1e-05 s⁻¹ | – | – | < 1e-05 s⁻¹ | –
22 | G59C C71U | < 1e-05 s⁻¹ | < 1e-05 s⁻¹ | < 1e-05 s⁻¹ | < 1e-05 s⁻¹ | < 1e-05 s⁻¹
23 | A52G G60C | < 1e-05 s⁻¹ | < 1e-05 s⁻¹ | – | < 1e-05 s⁻¹ | < 1e-05 s⁻¹
